Patent publication US20230414796A1, “COMBINATION OF PARA-AMINOHIPPURIC ACID (PAH) AND RADIOLABELED COMPLEXES FOR TREATING CANCER” (priority 2020, published 2023)

Key:
[1] = Example 2: body weight of AR42J xenograft SWISS mice; design: species or system SWISS nude mice; conditions: mouse, in vivo
Procedure: 10 min prior to dosing of ^177Lu-DOTATOC, mice of groups 1 and 2 were injected intraperitoneally with 50 μL saline or PAH, respectively.
(§1) Body weight and tumor volume were evaluated every two to three days for a period of 46 days after treatment (or until the tumor size limit was reached). The tumor volume was determined by measuring the length, the width and the depth of the tumor with a digital caliper. Tumor volume was calculated by using the following formula: […]
(§2) The mice were monitored until the individual tumor size reached 1500 mm^3. When this experimental endpoint was reached or after a 46 days period following treatment, mice were euthanized. Mean tumor volume and body weight of AR42J xenograft SWISS mice were calculated for each treatment group throughout the duration of the study.

[2] = Example 1: body weight of AR42J xenograft CD1 nude mice; conditions: mouse, in vivo
Procedure: as §1, with “57” for “46”
as §2, with “57” for “46”, “CD1 nude” for “SWISS”

SMILES: C[C@@H](O)[C@@H]1NC(=O)[C@H](CCCCN)NC(=O)[C@@H](Cc2c[nH]c3ccccc23)NC(=O)[C@H](Cc2ccc(O)cc2)NC(=O)[C@@H](NC(=O)[C@@H](Cc2ccccc2)NC(=O)CN2CCN(CC(=O)O)CCN(CC(=O)O)CCN(CC(=O)O)CC2)CSSC[C@@H](C(=O)N[C@H](CO)[C@@H](C)O)NC1=O [^177Lu-DOTATOC, ^177Lu-DOTA-D-Phe-cyclo(Cys-Tyr-D-Trp-Lys-Thr-Cys]-Thr(ol), metal not drawn]
- average weight increase compared to tumor-bearing control mice [1]: increased slightly more slowly
- physical appearance throughout the study period [1]: maintained a healthy physical appearance
- radiotoxicity (suggested by body weight) [1]: low radiotoxicity
- average weight change compared to untreated tumor-bearing control mice [2]: increased similarly
- physical appearance throughout the study period [2]: maintained a healthy physical appearance
